Laboratory results as given in patent US20240270821A1, “GIP/GLP1/GCG TRI-RECEPTOR AGONISTS AND USES THEREOF” (priority 2023, published 2024).

Key:
Experiment in all cases: cell-based or functional assay
hGLP-1R = hGLP-1R (Homo sapiens, UniProt P43220)
[1] = molecular target: T1, human GIP receptor (human) (UniProt P48546)
T1 sequence (looked up): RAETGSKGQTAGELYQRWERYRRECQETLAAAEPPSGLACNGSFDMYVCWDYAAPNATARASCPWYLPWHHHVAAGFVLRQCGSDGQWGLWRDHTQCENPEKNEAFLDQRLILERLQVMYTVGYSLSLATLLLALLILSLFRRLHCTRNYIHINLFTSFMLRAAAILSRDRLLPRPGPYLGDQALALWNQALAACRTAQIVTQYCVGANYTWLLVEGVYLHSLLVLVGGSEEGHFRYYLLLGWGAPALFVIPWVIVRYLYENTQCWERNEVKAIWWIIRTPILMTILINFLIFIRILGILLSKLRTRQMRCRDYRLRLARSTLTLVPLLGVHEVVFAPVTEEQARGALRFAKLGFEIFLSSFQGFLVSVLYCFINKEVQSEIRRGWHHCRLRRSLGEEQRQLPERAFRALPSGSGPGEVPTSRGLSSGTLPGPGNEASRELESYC

[2] = molecular target: human GLP-1R (SNAP-GLP-1R expressed in HEK293 cells) (human) (UniProt P43220)
Chain of human GLP-1R (SNAP-GLP-1R expressed in HEK293 cells) (human) (P43220 24-463): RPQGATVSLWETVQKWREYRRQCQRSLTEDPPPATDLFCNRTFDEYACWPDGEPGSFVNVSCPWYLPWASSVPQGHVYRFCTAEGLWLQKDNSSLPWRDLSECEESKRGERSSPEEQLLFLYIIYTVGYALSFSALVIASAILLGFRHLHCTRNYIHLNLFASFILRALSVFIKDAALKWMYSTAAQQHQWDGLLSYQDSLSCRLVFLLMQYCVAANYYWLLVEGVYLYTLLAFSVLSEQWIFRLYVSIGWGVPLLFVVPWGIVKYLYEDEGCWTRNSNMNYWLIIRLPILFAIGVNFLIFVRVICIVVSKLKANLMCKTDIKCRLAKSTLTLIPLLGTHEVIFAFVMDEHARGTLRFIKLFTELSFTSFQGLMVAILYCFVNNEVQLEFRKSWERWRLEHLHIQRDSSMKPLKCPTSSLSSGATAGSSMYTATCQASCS

[3] = molecular target: human glucagon receptor (human) (UniProt P47871)
Chain of human glucagon receptor (human) (P47871 26-477): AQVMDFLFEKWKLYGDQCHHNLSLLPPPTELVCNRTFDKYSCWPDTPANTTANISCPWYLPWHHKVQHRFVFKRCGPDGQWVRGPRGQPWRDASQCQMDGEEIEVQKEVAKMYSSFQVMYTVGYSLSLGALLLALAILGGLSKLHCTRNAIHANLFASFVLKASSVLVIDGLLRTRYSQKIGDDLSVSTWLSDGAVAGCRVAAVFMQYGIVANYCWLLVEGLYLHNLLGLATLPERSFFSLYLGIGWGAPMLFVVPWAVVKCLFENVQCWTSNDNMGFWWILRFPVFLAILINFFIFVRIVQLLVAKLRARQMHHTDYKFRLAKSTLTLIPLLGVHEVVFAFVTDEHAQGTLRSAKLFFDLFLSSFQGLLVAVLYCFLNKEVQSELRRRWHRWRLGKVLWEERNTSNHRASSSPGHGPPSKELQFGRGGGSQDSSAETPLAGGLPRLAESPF

Chain of hGLP-1R (P43220 24-463): as the sequence (P43220 24-463) above

B1: Example 212 (peptide)
chain: YXQGTFTSDFSXXLDKKAQXAFIEYLLEAGPSSGAPPPSGS
modifications: Aib, Orn, αMeL, D-Ala; acylated Lys; synthetic construct; SITE 2: note = 2-Aminoisobutyric Acid; SITE 12: note = L-ornithine; SITE 13: note = alpha-methyl-leucine; SITE 17: note = Lysine is chemically modified through conjugation of the epsilon-amino group of the Lysine side chain with (2-[2-(2-Amino-ethoxy)-ethoxy]-acetyl)-(gamma-Glu)
For B1, the Relative cAMP EC50 (hGLP-1R) was 1.35 nM, the Relative cAMP EC50 [1] was 0.13 nM and the GLP1R Internalization EC50 [2] was 79.7 nM. It also gave an Internalization % TOP [2] of 43% and a Relative cAMP EC50 [3] of 3.74 nM.

B2: Example 186 (peptide)
chain: YXQGTFTSDFSXXLDKKAQXAFIEYLLEXGHSSGAPPPSGE
modifications: Aib, Orn, αMeL; AEEA2-γGlu-C18 diacid acyl; C-terminal amide; synthetic construct; SITE 2: note = 2-Aminoisobutyric Acid; SITE 12: note = L-ornithine; SITE 13: note = alpha-methyl-leucine; SITE 17: note = Lysine is chemically modified through conjugation of the epsilon-amino group of the Lysine side chain with (2-[2-(2-Amino-ethoxy)-ethoxy]-acetyl)2-(gamma-Glu)
With B2 the Relative cAMP EC50, nM (0.1% casein) (hGLP-1R) was 5.26 nM, the cAMP Rel EC50, nM (1% HSA) (hGLP-1R) was 690 nM and the Relative cAMP EC50, nM (0.1% casein) [1] was 0.107 nM. For the same binder, the cAMP Rel EC50, nM (1% HSA) [1] was 18 nM, the GLP1R Internalization EC50 [2] was 124 nM and the Internalization % TOP [2] was 41.1%. The Relative cAMP EC50, nM (0.1% casein) [3] was 4.67 nM and the cAMP Rel EC50, nM (1% HSA) [3] was 1280 nM.

B3: Example 209 (peptide)
chain: YXQGTFTSDFSXXLDKKAQXAFIEYLLEAGPSSGAPPPSGS
modifications: Aib, Orn, αMeL, D-Ala, acylated Lys, C-terminal amide; synthetic construct; SITE 2: note = 2-Aminoisobutyric Acid; SITE 12: note = L-ornithine; SITE 13: note = alpha-methyl-leucine; SITE 17: note = Lysine is chemically modified through conjugation of the epsilon-amino group of the Lysine side chain with (2-[2-(2-Amino-ethoxy)-ethoxy]-acetyl)-(gamma-Glu)
With B3 the Relative cAMP EC50 (hGLP-1R) was 1.78 nM, the Relative cAMP EC50 [1] was 0.129 nM and the GLP1R Internalization EC50 [2] was 83.1 nM. The Internalization % TOP [2] was 41.2% and the Relative cAMP EC50 [3] was 3.08 nM.

B4: Example 187 (peptide)
chain: YXQGTFTSDXSRXLDKKAQXAFIEYLIEXGESSGAPPPSGS
modifications: Aib, 4Pal, αMeL; lipidated Lys; C-terminal amide; synthetic construct; SITE 2: note = 2-Aminoisobutyric Acid; SITE 10: note = 3-(4-Pyridyl)-L-alanine; SITE 13: note = alpha-methyl-leucine; SITE 17: note = Lysine is chemically modified through conjugation of the epsilon-amino group of the Lysine side chain with (2-[2-(2-Amino-ethoxy)-ethoxy]-acetyl)
With B4 the Relative cAMP EC50, nM (0.1% casein) (hGLP-1R) was 1.11 nM, the cAMP Rel EC50, nM (1% HSA) (hGLP-1R) was 178 nM and the Relative cAMP EC50, nM (0.1% casein) [1] was 0.111 nM. It also gave a cAMP Rel EC50, nM (1% HSA) [1] of 15.6 nM, a GLP1R Internalization EC50 [2] of 17.2 nM and an Internalization % TOP [2] of 57%. It also gave a Relative cAMP EC50, nM (0.1% casein) [3] of 14.8 nM and a cAMP Rel EC50, nM (1% HSA) [3] of 2970 nM.

B5: Example 222 (peptide)
chain: YXQGTFTSDXSXXLDKKAQXAFIEYLIEXGESSGAPPPSGE
modifications: non-natural residues; Lys acylated C18 diacid; C-terminal amide; synthetic construct; SITE 2: note = 2-Aminoisobutyric Acid; SITE 10: note = 3-(4-Pyridyl)-L-alanine; SITE 12: note = L-ornithine; SITE 13: note = alpha-methyl-leucine; SITE 17: note = Lysine is chemically modified through conjugation of the epsilon-amino group of the Lysine side chain with (2-[2-(2-
B5 gave a Relative cAMP EC50 (hGLP-1R) of 3.64 nM, a cAMP Rel EC50, nM (1% HSA) (hGLP-1R) of 753 nM and a Relative cAMP EC50 [1] of 0.228 nM. The cAMP Rel EC50, nM (1% HSA) [1] was 52.5 nM, the GLP1R Internalization EC50 [2] was 34.6 nM and the Internalization % TOP [2] was 52.4%. The Relative cAMP EC50 [3] was 2.33 nM and the cAMP Rel EC50, nM (1% HSA) [3] was 440 nM.

B6: Example 230 (peptide)
chain: YXQGTFTSDFSRXLDKKAQXAFIEYLIEXGESSGAPPPSGS
modifications: non-natural residues, AEEA-γGlu-C18 diacid acyl on K, C-terminal amide; synthetic construct; SITE 2: note = 2-Aminoisobutyric Acid; SITE 13: note = alpha-methyl-leucine; SITE 17: note = Lysine is chemically modified through conjugation of the epsilon-amino group of the Lysine side chain with (2-[2-(2-Amino-ethoxy)-ethoxy]-acetyl)-(gamma-Glu)-CO-(CH2) 16-CO2H; SITE 20: n
B6 gave a Relative cAMP EC50 (hGLP-1R) of 0.937 nM, a Relative cAMP EC50 [1] of 0.0909 nM and a GLP1R Internalization EC50 [2] of 34.4 nM. For the same binder, the Internalization % TOP [2] was 31.2% and the Relative cAMP EC50 [3] was 1.61 nM.

B7: Example 224 (peptide)
chain: YXQGTFTSDXSRXLDKKAQXAFIEYLIEXGESSGAPPPSGS
modifications: non-natural residues, C-terminal amide, acylated Lys with fatty diacid; synthetic construct; SITE 2: note = 2-Aminoisobutyric Acid; SITE 10: note = 3-(4-Pyridyl)-L-alanine; SITE 13: note = alpha-methyl-leucine; SITE 17: note = Lysine is chemically modified through conjugation of the epsilon-amino group of the Lysine side chain with (2-[2-(2-Amino-ethoxy)-ethoxy]-acetyl)
Work on B7 yielded a Relative cAMP EC50 (hGLP-1R) of 1.89 nM, a cAMP Rel EC50, nM (1% HSA) (hGLP-1R) of 333 nM and a Relative cAMP EC50 [1] of 0.114 nM. It also gave a cAMP Rel EC50, nM (1% HSA) [1] of 21.5 nM, a GLP1R Internalization EC50 [2] of 32.2 nM and an Internalization % TOP [2] of 61.9%. The Relative cAMP EC50 [3] was 1.91 nM and the cAMP Rel EC50, nM (1% HSA) [3] was 452 nM.

B8: Example 192 (peptide)
chain: YXQGTFTSDFSXXLDKKAQXAFIEYLLEXGPSSGAPPPSGS
modifications: Aib, Orn, αMeL; lipidated Lys (AEEA-γGlu2-C18 diacid); C-term amide; synthetic construct; SITE 2: note = 2-Aminoisobutyric Acid; SITE 12: note = L-ornithine; SITE 13: note = alpha-methyl-leucine; SITE 17: note = Lysine is chemically modified through conjugation of the epsilon-amino group of the Lysine side chain with (2-[2-(2-Amino-ethoxy)-ethoxy]-acetyl)-(gamma-Glu)
B8 showed a Relative cAMP EC50, nM (0.1% casein) (hGLP-1R) of 9.77 nM, a cAMP Rel EC50, nM (1% HSA) (hGLP-1R) of 719 nM and a Relative cAMP EC50, nM (0.1% casein) [1] of 0.142 nM. For the same binder, the cAMP Rel EC50, nM (1% HSA) [1] was 9.86 nM, the GLP1R Internalization EC50 [2] was 115 nM and the Internalization % TOP [2] was 48.7%. For the same binder, the Relative cAMP EC50, nM (0.1% casein) [3] was 4.18 nM and the cAMP Rel EC50, nM (1% HSA) [3] was 560 nM.

B9: Example 223 (peptide)
chain: YXQGTFTSDXSXXLDKKAQXAFIEYLIEXGESSGAPPPSGS
modifications: Aib, 4Pal, Orn, αMeL, αMe4Pal, acylated Lys, amide; synthetic construct; SITE 2: note = 2-Aminoisobutyric Acid; SITE 10: note = 3-(4-Pyridyl)-L-alanine; SITE 12: note = L-ornithine; SITE 13: note = alpha-methyl-leucine; SITE 17: note = Lysine is chemically modified through conjugation of the epsilon-amino group of the Lysine side chain with (2-[2-(2-
B9 was tested, and the Relative cAMP EC50 (hGLP-1R) was 2.83 nM, the cAMP Rel EC50, nM (1% HSA) (hGLP-1R) was 627 nM and the Relative cAMP EC50 [1] was 0.215 nM. For the same binder, the cAMP Rel EC50, nM (1% HSA) [1] was 37.2 nM, the GLP1R Internalization EC50 [2] was 45.8 nM and the Internalization % TOP [2] was 59.3%. It also gave a Relative cAMP EC50 [3] of 1.57 nM and a cAMP Rel EC50, nM (1% HSA) [3] of 373 nM.

B10: Example 217 (peptide)
chain: YXQGTFTSDFSKXLDKKAQXAFIEYLIEXGESSGAPPPSGE
modifications: Aib, αMeL, acylated Lys (AEEA-γGlu-C18 diacid), C-terminal amide; synthetic construct; SITE 2: note = 2-Aminoisobutyric Acid; SITE 13: note = alpha-methyl-leucine; SITE 17: note = Lysine is chemically modified through conjugation of the epsilon-amino group of the Lysine side chain with (2-[2-(2-Amino-ethoxy)-ethoxy]-acetyl)-(gamma-Glu)-CO-(CH2) 16-CO2H; SITE 20: n
B10 showed a Relative cAMP EC50 (hGLP-1R) of 0.667 nM, a cAMP Rel EC50, nM (1% HSA) (hGLP-1R) of 130 nM and a Relative cAMP EC50 [1] of 0.0897 nM. For the same binder, the cAMP Rel EC50, nM (1% HSA) [1] was 15 nM, the GLP1R Internalization EC50 [2] was 27.6 nM and the Internalization % TOP [2] was 58.2%. For the same binder, the Relative cAMP EC50 [3] was 5.11 nM and the cAMP Rel EC50, nM (1% HSA) [3] was 1570 nM.

B11: Example 225 (peptide)
chain: YXQGTFTSDXSRXLDKKAQXAFIEYLIEXGESSGAPPPSGE
modifications: non-natural residues, AEEA-γGlu-C18 diacid acyl on K, C-terminal amide; synthetic construct; SITE 2: note = 2-Aminoisobutyric Acid; SITE 10: note = 3-(4-Pyridyl)-L-alanine; SITE 13: note = alpha-methyl-leucine; SITE 17: note = Lysine is chemically modified through conjugation of the epsilon-amino group of the Lysine side chain with (2-[2-(2-Amino-ethoxy)-ethoxy]-acetyl)
Binder B11 has a Relative cAMP EC50 (hGLP-1R) of 2.44 nM, a cAMP Rel EC50, nM (1% HSA) (hGLP-1R) of 438 nM and a Relative cAMP EC50 [1] of 0.213 nM. It also gave a cAMP Rel EC50, nM (1% HSA) [1] of 40.2 nM, a GLP1R Internalization EC50 [2] of 26 nM and an Internalization % TOP [2] of 56.7%. For the same binder, the Relative cAMP EC50 [3] was 2.36 nM and the cAMP Rel EC50, nM (1% HSA) [3] was 561 nM.

B12: Example 214 (peptide)
chain: YXQGTFTSDFSXXLDKKAQXAFIEYLLEAGPSSXAPPPSGT
modifications: Lys acylated with AEEA-γGlu-C18 diacid; non-natural residues; C-amide; synthetic construct; SITE 2: note = 2-Aminoisobutyric Acid; SITE 12: note = L-ornithine; SITE 13: note = alpha-methyl-leucine; SITE 17: note = Lysine is chemically modified through conjugation of the epsilon-amino group of the Lysine side chain with (2-[2-(2-Amino-ethoxy)-ethoxy]-acetyl)-(gamma-Glu)
B12 showed a Relative cAMP EC50 (hGLP-1R) of 1.22 nM, a cAMP Rel EC50, nM (1% HSA) (hGLP-1R) of 186 nM and a Relative cAMP EC50 [1] of 0.103 nM. The cAMP Rel EC50, nM (1% HSA) [1] was 15.1 nM, the GLP1R Internalization EC50 [2] was 50.1 nM and the Internalization % TOP [2] was 41.7%. For the same binder, the Relative cAMP EC50 [3] was 2.49 nM and the cAMP Rel EC50, nM (1% HSA) [3] was 302 nM.
